Assay results: the supplement of paper PMC10065799, “High-throughput profiling of sequence recognition by tyrosine kinases and SH2 domains using bacterial peptide display” (eLife, 2023)

How the values were obtained:
c-Abl (mouse) = assay: phosphorylation enrichment, bacterial display (enrichment ratio); higher = better substrate or ligand; peptides without Tyr show the background
Fes = Fes (UniProt P07332); assay: as above
EPHB2 = EPHB2 (UniProt P29323); assay: as above
EPHB1 = EPHB1 (UniProt P54762); assay: as above
FGFR3 = FGFR3 (UniProt P22607); assay: as above
FGFR3, sequence (P22607 whole entry, looked up): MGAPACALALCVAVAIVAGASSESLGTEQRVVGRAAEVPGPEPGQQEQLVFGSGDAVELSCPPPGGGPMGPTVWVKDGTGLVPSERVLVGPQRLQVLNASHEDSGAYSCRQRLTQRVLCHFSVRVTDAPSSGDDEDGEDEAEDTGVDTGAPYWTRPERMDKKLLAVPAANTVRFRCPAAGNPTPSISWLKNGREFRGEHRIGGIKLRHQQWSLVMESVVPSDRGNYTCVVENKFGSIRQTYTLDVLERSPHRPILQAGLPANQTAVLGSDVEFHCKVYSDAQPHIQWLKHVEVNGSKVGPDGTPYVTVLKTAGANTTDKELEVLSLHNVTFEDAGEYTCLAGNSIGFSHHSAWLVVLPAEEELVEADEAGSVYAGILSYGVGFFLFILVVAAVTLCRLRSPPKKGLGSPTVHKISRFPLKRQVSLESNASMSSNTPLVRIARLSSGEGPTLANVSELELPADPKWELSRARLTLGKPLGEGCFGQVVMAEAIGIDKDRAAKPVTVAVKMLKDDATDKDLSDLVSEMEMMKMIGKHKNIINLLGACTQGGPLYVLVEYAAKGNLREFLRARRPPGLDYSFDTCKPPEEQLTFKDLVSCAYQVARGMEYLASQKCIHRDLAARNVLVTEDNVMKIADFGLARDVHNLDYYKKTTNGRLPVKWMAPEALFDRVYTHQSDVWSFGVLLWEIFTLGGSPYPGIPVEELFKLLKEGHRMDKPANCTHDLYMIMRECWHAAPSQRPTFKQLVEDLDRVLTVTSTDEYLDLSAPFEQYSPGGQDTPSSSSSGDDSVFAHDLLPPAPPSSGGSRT

Hck = Hck (UniProt P08631); assay: as above
Hck, sequence (P08631 whole entry, looked up): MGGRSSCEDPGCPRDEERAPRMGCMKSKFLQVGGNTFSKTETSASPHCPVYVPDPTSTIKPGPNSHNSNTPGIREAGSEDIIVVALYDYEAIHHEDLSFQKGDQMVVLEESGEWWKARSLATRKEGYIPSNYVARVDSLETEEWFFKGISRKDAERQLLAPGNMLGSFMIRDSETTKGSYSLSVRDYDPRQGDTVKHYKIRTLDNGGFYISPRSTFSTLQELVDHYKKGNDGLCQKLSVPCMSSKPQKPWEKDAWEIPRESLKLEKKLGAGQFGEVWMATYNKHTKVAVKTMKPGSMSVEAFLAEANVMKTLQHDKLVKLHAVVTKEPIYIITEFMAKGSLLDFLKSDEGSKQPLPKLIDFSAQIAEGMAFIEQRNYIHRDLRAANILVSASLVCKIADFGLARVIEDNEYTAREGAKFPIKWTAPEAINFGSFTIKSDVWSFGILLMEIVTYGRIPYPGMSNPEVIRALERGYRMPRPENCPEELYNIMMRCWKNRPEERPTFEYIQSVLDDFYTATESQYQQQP

Fyn = Fyn (UniProt P06241); assay: as above
Fyn, sequence (P06241 whole entry, looked up): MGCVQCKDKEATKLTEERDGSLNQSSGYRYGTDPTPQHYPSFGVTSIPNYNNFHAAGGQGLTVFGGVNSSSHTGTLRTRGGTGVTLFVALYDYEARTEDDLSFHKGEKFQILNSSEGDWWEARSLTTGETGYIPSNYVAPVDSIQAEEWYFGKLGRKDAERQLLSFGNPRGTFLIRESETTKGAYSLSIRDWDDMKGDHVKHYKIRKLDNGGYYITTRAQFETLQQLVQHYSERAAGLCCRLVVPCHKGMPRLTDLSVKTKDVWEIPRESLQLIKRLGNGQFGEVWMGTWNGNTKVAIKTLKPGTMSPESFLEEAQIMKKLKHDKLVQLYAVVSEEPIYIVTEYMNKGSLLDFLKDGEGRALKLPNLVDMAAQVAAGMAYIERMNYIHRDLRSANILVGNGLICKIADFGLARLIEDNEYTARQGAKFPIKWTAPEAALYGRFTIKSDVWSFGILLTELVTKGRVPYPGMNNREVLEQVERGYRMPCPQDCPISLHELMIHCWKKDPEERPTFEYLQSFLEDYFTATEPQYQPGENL

c-Src = assay: as above
Fer (mouse) = assay: as above
Jak2 = Jak2 (UniProt O60674); assay: as above
Jak2, sequence (O60674 whole entry, looked up): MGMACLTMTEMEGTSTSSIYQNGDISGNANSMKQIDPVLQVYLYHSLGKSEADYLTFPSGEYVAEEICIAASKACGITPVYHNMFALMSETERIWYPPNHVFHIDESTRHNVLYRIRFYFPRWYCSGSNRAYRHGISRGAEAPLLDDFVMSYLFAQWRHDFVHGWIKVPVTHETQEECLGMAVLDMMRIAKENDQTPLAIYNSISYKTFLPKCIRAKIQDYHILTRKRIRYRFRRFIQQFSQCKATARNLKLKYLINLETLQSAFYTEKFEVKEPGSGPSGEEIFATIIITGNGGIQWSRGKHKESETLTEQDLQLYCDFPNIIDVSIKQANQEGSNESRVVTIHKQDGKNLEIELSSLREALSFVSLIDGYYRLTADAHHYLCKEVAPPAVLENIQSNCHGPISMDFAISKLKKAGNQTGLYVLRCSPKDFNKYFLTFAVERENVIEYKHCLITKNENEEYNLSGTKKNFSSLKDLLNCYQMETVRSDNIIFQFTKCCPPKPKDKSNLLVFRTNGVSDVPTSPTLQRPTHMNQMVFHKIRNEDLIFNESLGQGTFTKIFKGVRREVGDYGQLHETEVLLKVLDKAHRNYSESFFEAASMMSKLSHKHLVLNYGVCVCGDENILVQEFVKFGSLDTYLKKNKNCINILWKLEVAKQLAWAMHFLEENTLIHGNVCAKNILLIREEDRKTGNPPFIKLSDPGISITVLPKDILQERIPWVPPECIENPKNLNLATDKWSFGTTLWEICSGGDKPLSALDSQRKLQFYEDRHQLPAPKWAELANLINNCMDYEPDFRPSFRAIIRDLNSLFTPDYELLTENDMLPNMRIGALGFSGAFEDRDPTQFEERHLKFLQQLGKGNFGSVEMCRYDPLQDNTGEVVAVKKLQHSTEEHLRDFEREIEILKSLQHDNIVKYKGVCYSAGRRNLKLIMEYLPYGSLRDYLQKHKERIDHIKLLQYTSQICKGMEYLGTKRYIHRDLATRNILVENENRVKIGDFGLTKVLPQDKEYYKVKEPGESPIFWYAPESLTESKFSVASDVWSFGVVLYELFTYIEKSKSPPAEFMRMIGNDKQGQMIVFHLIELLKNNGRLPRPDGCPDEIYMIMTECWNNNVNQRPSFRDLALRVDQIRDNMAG

AncSZ = assay: as above
MERTK = MERTK (UniProt Q12866); assay: as above
MERTK, sequence (Q12866 whole entry, looked up): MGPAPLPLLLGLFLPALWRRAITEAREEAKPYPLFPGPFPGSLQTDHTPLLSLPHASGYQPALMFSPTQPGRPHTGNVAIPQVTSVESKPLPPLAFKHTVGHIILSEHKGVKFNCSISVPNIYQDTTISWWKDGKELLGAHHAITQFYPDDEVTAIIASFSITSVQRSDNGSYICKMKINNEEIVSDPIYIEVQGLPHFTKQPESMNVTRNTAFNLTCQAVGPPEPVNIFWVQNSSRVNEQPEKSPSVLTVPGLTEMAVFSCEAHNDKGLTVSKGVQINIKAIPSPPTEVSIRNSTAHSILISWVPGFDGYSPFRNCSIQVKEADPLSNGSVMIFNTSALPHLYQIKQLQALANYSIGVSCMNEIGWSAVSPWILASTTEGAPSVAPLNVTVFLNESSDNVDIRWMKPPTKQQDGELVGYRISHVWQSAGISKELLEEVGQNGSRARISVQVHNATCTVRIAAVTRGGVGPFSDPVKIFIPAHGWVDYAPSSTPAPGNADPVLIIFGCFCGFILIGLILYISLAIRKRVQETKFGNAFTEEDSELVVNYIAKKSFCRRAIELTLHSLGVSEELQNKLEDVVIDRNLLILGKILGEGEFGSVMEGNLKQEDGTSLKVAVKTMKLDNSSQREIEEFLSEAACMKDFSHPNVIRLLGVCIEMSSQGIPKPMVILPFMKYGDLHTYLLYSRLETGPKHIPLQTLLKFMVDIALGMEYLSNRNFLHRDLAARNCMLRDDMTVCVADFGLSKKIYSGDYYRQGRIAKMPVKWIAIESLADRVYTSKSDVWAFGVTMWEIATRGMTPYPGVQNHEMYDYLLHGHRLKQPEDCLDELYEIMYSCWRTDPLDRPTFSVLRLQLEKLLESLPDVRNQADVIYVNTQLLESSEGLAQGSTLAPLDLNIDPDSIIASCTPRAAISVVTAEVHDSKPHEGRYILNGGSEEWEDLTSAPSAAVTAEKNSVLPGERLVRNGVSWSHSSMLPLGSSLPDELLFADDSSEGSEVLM

FGFR1 = FGFR1 (UniProt P11362); assay: as above
Grb2 SH2 = Grb2 SH2 (UniProt P62993); assay: SH2 binding enrichment of the phosphorylated peptide, bacterial display (enrichment ratio); higher = better substrate or ligand; peptides without Tyr show the background
Grb2 SH2, sequence (P62993 whole entry, looked up): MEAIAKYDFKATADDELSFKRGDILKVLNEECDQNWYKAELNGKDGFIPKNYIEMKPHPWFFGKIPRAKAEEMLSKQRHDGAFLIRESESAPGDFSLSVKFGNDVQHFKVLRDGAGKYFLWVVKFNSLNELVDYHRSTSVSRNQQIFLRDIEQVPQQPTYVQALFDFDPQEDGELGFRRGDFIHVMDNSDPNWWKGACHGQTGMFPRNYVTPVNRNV

c-Src SH2 = assay: as above
SHP2-C SH2 = assay: as above
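Wherever SH2 binding enrichment of the phosphorylated peptide, bacterial display is given: peptide library displayed on the E. coli surface as eCPX fusions, selected cells deep-sequenced, score is each peptide's frequency after selection divided by its frequency in the input.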
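Wherever phosphorylation enrichment, bacterial display is given: 11-residue human phosphosite peptides and single-mutation variants displayed on the E. coli surface, counted by deep sequencing, each peptide's frequency after selection divided by its frequency in the unselected input library; frequency after pTyr selection over input frequency; kinase dosed for 20-30% of maximal phosphorylation in three min.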

Fes, sequence (P07332 whole entry, looked up): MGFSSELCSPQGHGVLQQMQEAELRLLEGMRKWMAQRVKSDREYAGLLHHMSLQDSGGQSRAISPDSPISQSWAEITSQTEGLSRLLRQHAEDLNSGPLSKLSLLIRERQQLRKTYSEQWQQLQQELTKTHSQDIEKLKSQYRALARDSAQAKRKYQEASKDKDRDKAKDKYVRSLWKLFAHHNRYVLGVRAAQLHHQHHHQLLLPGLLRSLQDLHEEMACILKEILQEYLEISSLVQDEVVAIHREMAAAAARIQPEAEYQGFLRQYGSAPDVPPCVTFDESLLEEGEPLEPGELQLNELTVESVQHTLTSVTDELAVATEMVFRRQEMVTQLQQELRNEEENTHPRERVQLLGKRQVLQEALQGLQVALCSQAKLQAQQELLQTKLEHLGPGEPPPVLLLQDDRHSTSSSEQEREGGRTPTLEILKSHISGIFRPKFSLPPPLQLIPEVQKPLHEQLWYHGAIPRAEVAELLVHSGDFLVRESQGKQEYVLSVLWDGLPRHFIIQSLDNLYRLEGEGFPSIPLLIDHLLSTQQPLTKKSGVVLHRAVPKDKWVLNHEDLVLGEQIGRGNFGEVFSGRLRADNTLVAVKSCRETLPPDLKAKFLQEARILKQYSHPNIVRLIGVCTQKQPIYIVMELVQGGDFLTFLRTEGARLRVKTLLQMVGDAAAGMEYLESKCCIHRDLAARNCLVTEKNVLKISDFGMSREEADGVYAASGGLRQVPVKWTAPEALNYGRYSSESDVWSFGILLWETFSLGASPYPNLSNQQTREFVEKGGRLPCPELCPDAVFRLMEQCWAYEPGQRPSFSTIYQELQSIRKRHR

## DPMNTYARPAE [SGMS2_Y24_T21M]
c-Abl (mouse)
  phosphorylation enrichment: 0.792
Fes
  phosphorylation enrichment: 0.883
EPHB2
  phosphorylation enrichment: 0.476
EPHB1
  phosphorylation enrichment: 0.381
FGFR3
  phosphorylation enrichment: 0.542
Hck
  phosphorylation enrichment: 0.576
Fyn
  phosphorylation enrichment: 0.434
c-Src
  phosphorylation enrichment: 0.538
Fer (mouse)
  phosphorylation enrichment: 0.504
Jak2
  phosphorylation enrichment: 0.771
AncSZ
  phosphorylation enrichment: 0.878
MERTK
  phosphorylation enrichment: 0.46
FGFR1
  phosphorylation enrichment: 0.475
Grb2 SH2
  SH2 binding enrichment: 0.732
c-Src SH2
  SH2 binding enrichment: 1.73
SHP2-C SH2
  SH2 binding enrichment: 0.605

## DRKRQCELLKL [KIF4B_Y684_Y684C]
c-Abl (mouse)
  phosphorylation enrichment: 0.679
Fes
  phosphorylation enrichment: 0.839
EPHB2
  phosphorylation enrichment: 0.404
EPHB1
  phosphorylation enrichment: 0.401
FGFR3
  phosphorylation enrichment: 0.689
Hck
  phosphorylation enrichment: 0.428
Fyn
  phosphorylation enrichment: 0.355
c-Src
  phosphorylation enrichment: 0.493
Fer (mouse)
  phosphorylation enrichment: 0.432
Jak2
  phosphorylation enrichment: 0.791
AncSZ
  phosphorylation enrichment: 0.646
MERTK
  phosphorylation enrichment: 0.356
FGFR1
  phosphorylation enrichment: 0.502
Grb2 SH2
  SH2 binding enrichment: 1.03
c-Src SH2
  SH2 binding enrichment: 0.886
SHP2-C SH2
  SH2 binding enrichment: 1.19

## DRLASYSDKVR [KRT10_Y160_L161S]
c-Abl (mouse)
  phosphorylation enrichment: 0.42
Fes
  phosphorylation enrichment: 0.553
EPHB2
  phosphorylation enrichment: 0.365
EPHB1
  phosphorylation enrichment: 0.366
FGFR3
  phosphorylation enrichment: 0.419
Hck
  phosphorylation enrichment: 0.387
Fyn
  phosphorylation enrichment: 0.41
c-Src
  phosphorylation enrichment: 0.445
Fer (mouse)
  phosphorylation enrichment: 0.322
Jak2
  phosphorylation enrichment: 0.503
AncSZ
  phosphorylation enrichment: 0.578
MERTK
  phosphorylation enrichment: 0.43
FGFR1
  phosphorylation enrichment: 0.454
Grb2 SH2
  SH2 binding enrichment: 1.04
c-Src SH2
  SH2 binding enrichment: 0.521
SHP2-C SH2
  SH2 binding enrichment: 0.667

## DRLAVYIDRVP [LMNA_Y45_R50P]
c-Abl (mouse)
  phosphorylation enrichment: 0.654
Fes
  phosphorylation enrichment: 1.09
EPHB2
  phosphorylation enrichment: 0.719
EPHB1
  phosphorylation enrichment: 0.682
FGFR3
  phosphorylation enrichment: 0.731
Hck
  phosphorylation enrichment: 0.468
Fyn
  phosphorylation enrichment: 0.429
c-Src
  phosphorylation enrichment: 0.329
Fer (mouse)
  phosphorylation enrichment: 0.437
Jak2
  phosphorylation enrichment: 0.911
AncSZ
  phosphorylation enrichment: 1.09
MERTK
  phosphorylation enrichment: 0.331
FGFR1
  phosphorylation enrichment: 0.451
Grb2 SH2
  SH2 binding enrichment: 0.756
c-Src SH2
  SH2 binding enrichment: 0.471
SHP2-C SH2
  SH2 binding enrichment: 0.912

## DRTVNYVLKCR [PLEKHG4_Y1068]
c-Abl (mouse)
  phosphorylation enrichment: 0.764
Fes
  phosphorylation enrichment: 1.17
EPHB2
  phosphorylation enrichment: 0.67
EPHB1
  phosphorylation enrichment: 0.668
FGFR3
  phosphorylation enrichment: 0.778
Hck
  phosphorylation enrichment: 0.688
Fyn
  phosphorylation enrichment: 0.515
c-Src
  phosphorylation enrichment: 0.43
Fer (mouse)
  phosphorylation enrichment: 0.566
Jak2
  phosphorylation enrichment: 0.898
AncSZ
  phosphorylation enrichment: 1.15
MERTK
  phosphorylation enrichment: 0.357
FGFR1
  phosphorylation enrichment: 0.517
Grb2 SH2
  SH2 binding enrichment: 0.728
c-Src SH2
  SH2 binding enrichment: 0.83
SHP2-C SH2
  SH2 binding enrichment: 0.61

## DRVALYIAREG [AACS_Y117]
c-Abl (mouse)
  phosphorylation enrichment: 0.731
Fes
  phosphorylation enrichment: 1.14
EPHB2
  phosphorylation enrichment: 0.534
EPHB1
  phosphorylation enrichment: 0.671
FGFR3
  phosphorylation enrichment: 0.717
Hck
  phosphorylation enrichment: 0.569
Fyn
  phosphorylation enrichment: 0.468
c-Src
  phosphorylation enrichment: 0.432
Fer (mouse)
  phosphorylation enrichment: 0.484
Jak2
  phosphorylation enrichment: 1.02
AncSZ
  phosphorylation enrichment: 0.957
MERTK
  phosphorylation enrichment: 0.395
FGFR1
  phosphorylation enrichment: 0.519
Grb2 SH2
  SH2 binding enrichment: 0.896
c-Src SH2
  SH2 binding enrichment: 0.487
SHP2-C SH2
  SH2 binding enrichment: 0.928

## DRVALYVAREG [AACS_Y117_I118V]
c-Abl (mouse)
  phosphorylation enrichment: 0.589
Fes
  phosphorylation enrichment: 1.01
EPHB2
  phosphorylation enrichment: 0.763
EPHB1
  phosphorylation enrichment: 0.621
FGFR3
  phosphorylation enrichment: 0.705
Hck
  phosphorylation enrichment: 0.68
Fyn
  phosphorylation enrichment: 0.467
c-Src
  phosphorylation enrichment: 0.367
Fer (mouse)
  phosphorylation enrichment: 0.498
Jak2
  phosphorylation enrichment: 0.823
AncSZ
  phosphorylation enrichment: 0.8
MERTK
  phosphorylation enrichment: 0.291
FGFR1
  phosphorylation enrichment: 0.503
Grb2 SH2
  SH2 binding enrichment: 0.825
c-Src SH2
  SH2 binding enrichment: 0.425
SHP2-C SH2
  SH2 binding enrichment: 0.644

## DSIRDYEDGME [CLNS1A_Y214]
c-Abl (mouse)
  phosphorylation enrichment: 0.844
Fes
  phosphorylation enrichment: 1.26
EPHB2
  phosphorylation enrichment: 0.784
EPHB1
  phosphorylation enrichment: 0.749
FGFR3
  phosphorylation enrichment: 0.729
Hck
  phosphorylation enrichment: 0.612
Fyn
  phosphorylation enrichment: 0.647
c-Src
  phosphorylation enrichment: 0.521
Fer (mouse)
  phosphorylation enrichment: 0.49
Jak2
  phosphorylation enrichment: 1.66
AncSZ
  phosphorylation enrichment: 1.29
MERTK
  phosphorylation enrichment: 0.599
FGFR1
  phosphorylation enrichment: 0.628
Grb2 SH2
  SH2 binding enrichment: 0.851
c-Src SH2
  SH2 binding enrichment: 0.579
SHP2-C SH2
  SH2 binding enrichment: 0.859

## DSYSSYCNAVA [SLC20A2_Y436]
c-Abl (mouse)
  phosphorylation enrichment: 0.771
Fes
  phosphorylation enrichment: 1.23
EPHB2
  phosphorylation enrichment: 0.995
EPHB1
  phosphorylation enrichment: 0.729
FGFR3
  phosphorylation enrichment: 0.664
Hck
  phosphorylation enrichment: 0.788
Fyn
  phosphorylation enrichment: 0.819
c-Src
  phosphorylation enrichment: 0.84
Fer (mouse)
  phosphorylation enrichment: 0.687
Jak2
  phosphorylation enrichment: 0.859
AncSZ
  phosphorylation enrichment: 1.44
MERTK
  phosphorylation enrichment: 0.788
FGFR1
  phosphorylation enrichment: 0.904
Grb2 SH2
  SH2 binding enrichment: 0.796
c-Src SH2
  SH2 binding enrichment: 1.1
SHP2-C SH2
  SH2 binding enrichment: 0.688

## DVELLYPLKEK [EPHX1_Y283_V285L]
c-Abl (mouse)
  phosphorylation enrichment: 0.695
Fes
  phosphorylation enrichment: 1
EPHB2
  phosphorylation enrichment: 0.438
EPHB1
  phosphorylation enrichment: 0.395
FGFR3
  phosphorylation enrichment: 0.751
Hck
  phosphorylation enrichment: 0.495
Fyn
  phosphorylation enrichment: 0.484
c-Src
  phosphorylation enrichment: 0.439
Fer (mouse)
  phosphorylation enrichment: 0.422
Jak2
  phosphorylation enrichment: 0.866
AncSZ
  phosphorylation enrichment: 1.08
MERTK
  phosphorylation enrichment: 0.426
FGFR1
  phosphorylation enrichment: 0.452
Grb2 SH2
  SH2 binding enrichment: 0.893
c-Src SH2
  SH2 binding enrichment: 0.448
SHP2-C SH2
  SH2 binding enrichment: 0.787

## DVYVSYDCGKS [SORL1_Y139_Y141C]
c-Abl (mouse)
  phosphorylation enrichment: 0.862
Fes
  phosphorylation enrichment: 1.1
EPHB2
  phosphorylation enrichment: 1.93
EPHB1
  phosphorylation enrichment: 1.47
FGFR3
  phosphorylation enrichment: 1.81
Hck
  phosphorylation enrichment: 3.12
Fyn
  phosphorylation enrichment: 6.11
c-Src
  phosphorylation enrichment: 3.94
Fer (mouse)
  phosphorylation enrichment: 0.985
Jak2
  phosphorylation enrichment: 0.895
AncSZ
  phosphorylation enrichment: 1.6
MERTK
  phosphorylation enrichment: 1.04
FGFR1
  phosphorylation enrichment: 1.79
Grb2 SH2
  SH2 binding enrichment: 0.82
c-Src SH2
  SH2 binding enrichment: 0.476
SHP2-C SH2
  SH2 binding enrichment: 0.791

## DYCDLYGGEKF [PTPN11_Y66_Y63C]
c-Abl (mouse)
  phosphorylation enrichment: 0.747
Fes
  phosphorylation enrichment: 1.05
EPHB2
  phosphorylation enrichment: 2.14
EPHB1
  phosphorylation enrichment: 2.93
FGFR3
  phosphorylation enrichment: 2.56
Hck
  phosphorylation enrichment: 2.31
Fyn
  phosphorylation enrichment: 1.39
c-Src
  phosphorylation enrichment: 2.39
Fer (mouse)
  phosphorylation enrichment: 0.967
Jak2
  phosphorylation enrichment: 0.914
AncSZ
  phosphorylation enrichment: 1.72
MERTK
  phosphorylation enrichment: 0.477
FGFR1
  phosphorylation enrichment: 3.45
Grb2 SH2
  SH2 binding enrichment: 0.839
c-Src SH2
  SH2 binding enrichment: 0.724
SHP2-C SH2
  SH2 binding enrichment: 0.525

## DYYDLYGGQKF [PTPN11_Y66_E69Q]
c-Abl (mouse)
  phosphorylation enrichment: 0.814
Fes
  phosphorylation enrichment: 1.02
EPHB2
  phosphorylation enrichment: 8.29
EPHB1
  phosphorylation enrichment: 8.34
FGFR3
  phosphorylation enrichment: 13.5
Hck
  phosphorylation enrichment: 8.28
Fyn
  phosphorylation enrichment: 7.93
c-Src
  phosphorylation enrichment: 6.47
Fer (mouse)
  phosphorylation enrichment: 2.32
Jak2
  phosphorylation enrichment: 5.14
AncSZ
  phosphorylation enrichment: 2.69
MERTK
  phosphorylation enrichment: 5.66
FGFR1
  phosphorylation enrichment: 15.9
Grb2 SH2
  SH2 binding enrichment: 0.86
c-Src SH2
  SH2 binding enrichment: 0.666
SHP2-C SH2
  SH2 binding enrichment: 0.865

## EAEALYQTTFQ [KRT73_Y325_K328T]
c-Abl (mouse)
  phosphorylation enrichment: 2.1
Fes
  phosphorylation enrichment: 1.27
EPHB2
  phosphorylation enrichment: 1.53
EPHB1
  phosphorylation enrichment: 1.27
FGFR3
  phosphorylation enrichment: 0.972
Hck
  phosphorylation enrichment: 4.59
Fyn
  phosphorylation enrichment: 3.38
c-Src
  phosphorylation enrichment: 4.32
Fer (mouse)
  phosphorylation enrichment: 11.9
Jak2
  phosphorylation enrichment: 1.13
AncSZ
  phosphorylation enrichment: 1.98
MERTK
  phosphorylation enrichment: 4.9
FGFR1
  phosphorylation enrichment: 0.644
Grb2 SH2
  SH2 binding enrichment: 0.804
c-Src SH2
  SH2 binding enrichment: 0.483
SHP2-C SH2
  SH2 binding enrichment: 0.739

## EALDFYGEVRT [PTEN_Y155]
c-Abl (mouse)
  phosphorylation enrichment: 0.825
Fes
  phosphorylation enrichment: 1.39
EPHB2
  phosphorylation enrichment: 0.65
EPHB1
  phosphorylation enrichment: 0.829
FGFR3
  phosphorylation enrichment: 0.872
Hck
  phosphorylation enrichment: 0.918
Fyn
  phosphorylation enrichment: 1
c-Src
  phosphorylation enrichment: 1.01
Fer (mouse)
  phosphorylation enrichment: 0.707
Jak2
  phosphorylation enrichment: 1.51
AncSZ
  phosphorylation enrichment: 1.23
MERTK
  phosphorylation enrichment: 0.37
FGFR1
  phosphorylation enrichment: 0.501
Grb2 SH2
  SH2 binding enrichment: 0.635
c-Src SH2
  SH2 binding enrichment: 0.458
SHP2-C SH2
  SH2 binding enrichment: 0.643

## EAMSDYKKQLR [SPATA18_Y229]
c-Abl (mouse)
  phosphorylation enrichment: 0.442
Fes
  phosphorylation enrichment: 0.651
EPHB2
  phosphorylation enrichment: 0.413
EPHB1
  phosphorylation enrichment: 0.418
FGFR3
  phosphorylation enrichment: 0.605
Hck
  phosphorylation enrichment: 0.383
Fyn
  phosphorylation enrichment: 0.316
c-Src
  phosphorylation enrichment: 0.452
Fer (mouse)
  phosphorylation enrichment: 0.405
Jak2
  phosphorylation enrichment: 0.563
AncSZ
  phosphorylation enrichment: 0.594
MERTK
  phosphorylation enrichment: 0.393
FGFR1
  phosphorylation enrichment: 0.378
Grb2 SH2
  SH2 binding enrichment: 0.852
c-Src SH2
  SH2 binding enrichment: 0.438
SHP2-C SH2
  SH2 binding enrichment: 1.05
